One molecule from article PMC4791140 (Molecular Biology of the Cell, 2016) can be followed below.

The target in this experiment is T1, MBP-tagged WHAMM membrane-interaction domain (WMD) (human, UniProt Q8TF30 1-260).
T1 sequence (looked up): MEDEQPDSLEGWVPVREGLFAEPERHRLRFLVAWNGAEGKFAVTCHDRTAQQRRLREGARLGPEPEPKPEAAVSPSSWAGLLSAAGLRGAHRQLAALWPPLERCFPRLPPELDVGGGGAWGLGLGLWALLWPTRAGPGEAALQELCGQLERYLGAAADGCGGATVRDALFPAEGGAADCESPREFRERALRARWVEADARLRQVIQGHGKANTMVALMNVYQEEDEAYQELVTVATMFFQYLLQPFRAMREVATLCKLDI
Nature of the experiment: pull-down.

B1: GST-Rab1a, membrane-extracted prenylated form (Rab1(M)) (natural protein)
chain: not shown
modifications: prenylated (residues not stated)
As for B1, the binding result is recorded as “binds”.
